Results as given in PMC3286403.
Values joined by “and” are separate entries in the source; they are usually repeats but may differ in a detail not shown here. Equal values may be shown once. Read-outs that look alike come from different tables or passages of the source.

Experiments:
[1] = molecular target: untagged HIV-1 integrase W131A (HIV-1); experiment: SEC; 2.5 μM untagged IN on Superdex 200 10/300 GL; 50 mM HEPES pH 7.4, 750 mM NaCl, 10% glycerol; calibrated with protein standards; no DNA
[2] = molecular target: His-tagged HIV-1 integrase Y194A (HIV-1); experiment: AlphaScreen or HTRF; HTRF; His-IN 80 nM, GST-LEDGF/p75 or GST-TNPO3 5 nM, anti-GST-Europium Cryptate and anti-His-XL665; 25 mM Hepes pH 7.3, 150 mM NaCl, 2 mM MgCl2, 0.1% BSA, 1 mM DTT; read 2 h after incubation; signal as percent of IN WT ΔF
[3] = molecular target: His6-tagged HIV-1 integrase K188Q (HIV-1); experiment: as above
[4] = molecular target: His6-tagged HIV-1 integrase Q168L (HIV-1); experiment: as above
[5] = molecular target: His6-tagged HIV-1 integrase W131A (HIV-1); experiment: as above
[6] = molecular target: His6-tagged HIV-1 integrase Y194E (HIV-1); experiment: as above
[7] = molecular target: untagged HIV-1 integrase Y194E (HIV-1); experiment: SEC; 2.5 μM untagged IN on Superdex 200 10/300 GL; 50 mM HEPES pH 7.4, 750 mM NaCl, 10% glycerol; calibrated with protein standards; no DNA
[8] = molecular target: untagged HIV-1 integrase wild type (HIV-1); experiment: as above
[9] = molecular target: His6-tagged HIV-1 integrase Q168L (HIV-1); experiment: AlphaScreen or HTRF; HTRF; His-IN 80 nM, GST-LEDGF/p75 or GST-TNPO3 5 nM, anti-GST-Europium Cryptate and anti-His-XL665; 25 mM Hepes pH 7.3, 150 mM NaCl, 2 mM MgCl2, 0.1% BSA, 1 mM DTT; read 2 h after incubation; signal as percent of IN WT ΔF; remark: listed apart in the source
[10] = molecular target: His6-tagged HIV-1 integrase W131A (HIV-1); experiment: as above; remark: listed apart in the source
[11] = molecular target: His6-tagged HIV-1 integrase Y194E (HIV-1); experiment: as above; remark: listed apart in the source
[12] = molecular target: His6-tagged HIV-1 integrase Y194F (HIV-1); experiment: as above

Molecule: untagged HIV-1 integrase W131A (enzyme)
- stoichiometry N [1]: 4 and 2

Molecule: GST-LEDGF/p75 full length (from UniProt O75475 1-530) (natural protein)
- percent decrease of binding against IN WT (HTRF) [2]: 27%
- percent decrease of binding against IN WT (HTRF) [3]: 64.9%
- percent of IN WT interaction (HTRF) [4]: 16.3%
- percent of IN WT interaction (HTRF) [5]: 9.3%
- percent decrease of binding against IN WT (HTRF) [6]: 26%

Molecule: untagged HIV-1 integrase Y194E (enzyme)
- stoichiometry N [7]: 4

Molecule: untagged HIV-1 integrase wild type (enzyme)
- stoichiometry N [8]: 4 and 2

B1: GST-TNPO3 full length (natural protein)
chain: MEGAKPTLQLVYQAVQALYHDPDPSGKERASFWLGELQRSVHAWEISDQLLQIRQDVESCYFAAQTMKMKIQTSFYELPTDSHASLRDSLLTHIQNLKDLSPVIVTQLALAIADLALQMPSWKGCVQTLVEKYSNDVTSLPFLLEILTVLPEEVHSRSLRIGANRRTEIIEDLAFYSSTVVSLLMTCVEKAGTDEKMLMKVFRCLGSWFNLGVLDSNFMANNKLLALLFEVLQQDKTSSNLHEAASDCVCSALYAIENVETNLPLAMQLFQGVLTLETAYHMAVAREDLDKVLNYCRIFTELCETFLEKIVCTPGQGLGDLRTLELLLICAGHPQYEVVEISFNFWYRLGEHLYKTNDEVIHGIFKAYIQRLLHALARHCQLEPDHEGVPEETDDFGEFRMRVSDLVKDLIFLIGSMECFAQLYSTLKEGNPPWEVTEAVLFIMAAIAKSVDPENNPTLVEVLEGVVRLPETVHTAVRYTSIELVGEMSEVVDRNPQFLDPVLGYLMKGLCEKPLASAAAKAIHNICSVCRDHMAQHFNGLLEIARSLDSFLLSPEAAVGLLKGTALVLARLPLDKITECLSELCSVQVMALKKLLSQEPSNGISSDPTVFLDRLAVIFRHTNPIVENGQTHPCQKVIQEIWPVLSETLNKHRADNRIVERCCRCLRFAVRCVGKGSAALLQPLVTQMVNVYHVHQHSCFLYLGSILVDEYGMEEGCRQGLLDMLQALCIPTFQLLEQQNGLQNHPDTVDDLFRLATRFIQRSPVTLLRSQVVIPILQWAIASTTLDHRDANCSVMRFLRDLIHTGVANDHEEDFELRKELIGQVMNQLGQQLVSQLLHTCCFCLPPYTLPDVAEVLWEIMQVDRPTFCRWLENSLKGLPKETTVGAVTVTHKQLTDFHKQVTSAEECKQVCWALRDFTRLFR
- percent of IN WT (HTRF) [9]: 45%
- percent of IN WT (HTRF) [10]: 49%
- percent decrease of binding against IN WT (HTRF) [11]: 23.5%
- percent decrease of binding against IN WT (HTRF) [12]: 14.4%
